Article PMC2148462

What was measured:
[1] = molecular target: MBS (myosin-binding subunit of myosin phosphatase), endogenous in MDCK cells (dog (endogenous in MDCK)); assay: co-IP
[2] = molecular target: GST-moesin (1–323 aa) (human) (UniProt P26038); assay: pull-down
[3] = molecular target: HA-full-length moesin (1–577 aa) (mouse) (UniProt P26041); assay: pull-down
Sequence of UniProt P26041 (P26041 whole entry, the tested form may be a part): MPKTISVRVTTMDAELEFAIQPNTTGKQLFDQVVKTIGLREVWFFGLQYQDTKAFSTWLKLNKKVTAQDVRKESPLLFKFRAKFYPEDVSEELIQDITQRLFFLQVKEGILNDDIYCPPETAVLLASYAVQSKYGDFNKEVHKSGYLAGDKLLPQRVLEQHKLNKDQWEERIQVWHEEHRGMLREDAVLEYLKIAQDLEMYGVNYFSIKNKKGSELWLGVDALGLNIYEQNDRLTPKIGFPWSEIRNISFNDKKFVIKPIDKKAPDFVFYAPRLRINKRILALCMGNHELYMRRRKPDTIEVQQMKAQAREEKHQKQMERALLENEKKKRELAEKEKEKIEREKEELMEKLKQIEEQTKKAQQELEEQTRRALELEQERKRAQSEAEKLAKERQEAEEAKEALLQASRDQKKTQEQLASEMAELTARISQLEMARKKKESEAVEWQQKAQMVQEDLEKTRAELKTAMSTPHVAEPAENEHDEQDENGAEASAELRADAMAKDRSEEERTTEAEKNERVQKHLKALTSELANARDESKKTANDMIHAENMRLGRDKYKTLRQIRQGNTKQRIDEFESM

Sequence of UniProt P26038 (P26038 1-323): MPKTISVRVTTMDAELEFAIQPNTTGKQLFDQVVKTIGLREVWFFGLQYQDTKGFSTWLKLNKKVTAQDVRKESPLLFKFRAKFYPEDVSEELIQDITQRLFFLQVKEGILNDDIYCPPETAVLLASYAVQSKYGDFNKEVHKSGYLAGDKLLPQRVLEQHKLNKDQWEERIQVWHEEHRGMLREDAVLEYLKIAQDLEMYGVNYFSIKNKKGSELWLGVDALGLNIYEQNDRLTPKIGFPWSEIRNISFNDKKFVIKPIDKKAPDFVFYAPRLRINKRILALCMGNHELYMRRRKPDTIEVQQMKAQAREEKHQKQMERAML

percent of total moesin recovered with immunoprecipitated MBS [1] [%]	stoichiometry N (moesin per MBS) [1]	Kd [2] [nM]	stoichiometry N [2]	Kd [3] [nM]	Substance
0.5	0.33	–	–	–	moesin, endogenous in MDCK cells (natural protein)
–	–	260	0.4	1230	recombinant full-length rat MBS (1–976 aa), myosin-binding subunit of myosin phosphatase (natural protein)
